The supplement of paper PMC7877785
± gives the uncertainty stated by the source.

Experiment: self-splicing fitness, log relative to wild type (ln ratio); higher = more splicing; Tetrahymena group I intron in knt gene, E. coli kanamycin selection, DiMSum; sequences stand for … in CUCUCU…GGAGGGAAAAGUUAUCAGGCAUGCACCUGGUAGCUAGUCUUUAAACCAAUAGAUUGCAUCGGUUUAAAAGGCAAGACCGUCAAAUUGCGGGAAAGGGGUCAACAGCCGUUCAGUACCAAGUCUCAGGGGAAACUUUGAGAUGGCCUUGCAAAGGGUAUGGUAAUAAGCUGACGGACAUGGUCCUAACCACGCAGCCAAGUCCUAAGUCAACAGAUCUUCUGUUGAUAUGGAUGCAGUUCACAGACUAAAUGUCGGUCGGGGAAGAUGUAUUCUUCUCAUAAGAUAUAGUCGGACCUCUCCUUAAUGGGAGCUAGCGGAUGAAGUGAUGCAACACUGGAGCCGCUGGGAACUAAUUUGUAUGCGAAAGUAUAUUGAUUAGUUUUGGAGUACUCGUGGUCG
Outline: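 Fitness was computed with DiMSum as the error-weighted combination of replicate fold changes, kanamycin versus none, each normalised to wild type. The library randomised all eight intron nucleotides of the P1ex region, with the intron placed in the knt kanamycin-resistance gene on pET-22b(+) in E. coli BL21(DE3). Six replicate transformations were grown overnight at 37°C or 30°C on LB agar with or without 25 μg/mL kanamycin, plus 100 μg/mL carbenicillin, 50 μM IPTG and 0.2% rhamnose. Pooled colonies were amplicon-sequenced on an Illumina HiSeq 2500.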

Sequence	self-splicing fitness (ln) (30 °C)	self-splicing fitness (ln) (37 °C)
UCAUAGCAAUAUUACGAUCA	-1.3 ± 0.13	-0.941 ± 0.16
UCAUAGCAAUAUUACGAUCC		-1.7 ± 0.41
UCAUAGCAAUAUUACGCAGU	-4.03 ± 0.36	-3.4 ± 0.31
UCAUAGCAAUAUUACGCCCA	-2 ± 0.21	-0.939 ± 0.18
UCAUAGCAAUAUUACGCCCG	-0.515 ± 0.21	-0.292 ± 0.3
UCAUAGCAAUAUUACGCGGC	-3.53 ± 0.44	
UCAUAGCAAUAUUACGCUAC	-2.17 ± 0.21	-3.42 ± 0.29
UCAUAGCAAUAUUACGCUAU	-2.88 ± 0.39	-2.08 ± 0.47
UCAUAGCAAUAUUACGGAAA	-2.84 ± 0.41	-2.4 ± 0.28
UCAUAGCAAUAUUACGGACA	-2.48 ± 0.21	-0.42 ± 0.15
UCAUAGCAAUAUUACGGACG	-1.17 ± 0.15	-1.11 ± 0.17
UCAUAGCAAUAUUACGGCCG	-0.395 ± 0.15	0.157 ± 0.16
UCAUAGCAAUAUUACGGCGG	-0.555 ± 0.059	0.417 ± 0.074
UCAUAGCAAUAUUACGGGAA	-1.35 ± 0.19	-1.1 ± 0.16
UCAUAGCAAUAUUACGGGAG	-3.39 ± 0.26	-3.06 ± 0.29
UCAUAGCAAUAUUACGGUGA	-2.39 ± 0.13	-2 ± 0.12
UCAUAGCAAUAUUACGGUUC	-3.57 ± 0.35	
UCAUAGCAAUAUUACGUGUC	-3.2 ± 0.21	-3.08 ± 0.27
UCAUAGCAAUAUUACGUUUA	-4.13 ± 0.39	-2.11 ± 0.2
UCAUAGCAAUAUUACGUUUU	-2.81 ± 0.14	-1.29 ± 0.14
UCCAAGCAAUAUUACGAACU	-2.6 ± 0.15	-1.06 ± 0.15
UCCAAGCAAUAUUACGAAUG	-4.26 ± 0.21	-2.95 ± 0.2
UCCAAGCAAUAUUACGACUG	-3.78 ± 0.16	-2.6 ± 0.17
UCCAAGCAAUAUUACGAGCA	-0.834 ± 0.08	-0.0464 ± 0.1
UCCAAGCAAUAUUACGAGUU	-3.75 ± 0.28	-1.33 ± 0.2

Sequence	self-splicing fitness (ln) (30 °C)	self-splicing fitness (ln) (37 °C)
UCCAAGCAAUAUUACGAUCG	-2.65 ± 0.19	-3.06 ± 0.24
UCCAAGCAAUAUUACGCAUC	-3.02 ± 0.21	-2.93 ± 0.24
UCCAAGCAAUAUUACGCCUC	-2.33 ± 0.29	-2.53 ± 0.28
UCCAAGCAAUAUUACGCCUG	-4.15 ± 0.42	-2.26 ± 0.27
UCCAAGCAAUAUUACGCGAG	-4.03 ± 0.24	-2.93 ± 0.27
UCCAAGCAAUAUUACGCUGA	-1.43 ± 0.092	-1.07 ± 0.085
UCCAAGCAAUAUUACGCUGC	-2.94 ± 0.21	-2.61 ± 0.27
UCCAAGCAAUAUUACGCUUG	-3.72 ± 0.17	-2.11 ± 0.28
UCCAAGCAAUAUUACGGAAG	-1.85 ± 0.2	-1.8 ± 0.24
UCCAAGCAAUAUUACGGACG	-4.26 ± 0.2	-2.82 ± 0.16
UCCAAGCAAUAUUACGGCGU	-1.95 ± 0.091	-0.529 ± 0.1
UCCAAGCAAUAUUACGGUAA	-0.334 ± 0.067	0.257 ± 0.076
UCCAAGCAAUAUUACGUAUU	-3.44 ± 0.19	-2.46 ± 0.21
UCCAAGCAAUAUUACGUCGG	-1.11 ± 0.074	-0.182 ± 0.091
UCCAAGCAAUAUUACGUGCA	-0.24 ± 0.083	0.425 ± 0.11
UCCAAGCAAUAUUACGUUAG	-1.97 ± 0.13	-2.91 ± 0.28
UCCAAGCAAUAUUACGUUGU	-3.79 ± 0.16	-1.7 ± 0.13
UCCAAGCAAUAUUACGUUUA	-3.15 ± 0.12	-1.98 ± 0.11
UCCAAGCAAUAUUACGUUUG	-3.5 ± 0.15	-2.97 ± 0.2
UCCCAGCAAUAUUACGAACA	-1.51 ± 0.13	-0.139 ± 0.12
UCCCAGCAAUAUUACGAAUG	-2.98 ± 0.15	-2.61 ± 0.17
UCCCAGCAAUAUUACGAGGC	-2.23 ± 0.14	-0.738 ± 0.14
UCCCAGCAAUAUUACGAGUU	-3.85 ± 0.2	-2.45 ± 0.15
UCCCAGCAAUAUUACGAUCC	-1.93 ± 0.41	-1.58 ± 0.46
UCCCAGCAAUAUUACGAUUA	-1.71 ± 0.12	-1.36 ± 0.14

Sequence	self-splicing fitness (ln) (30 °C)	self-splicing fitness (ln) (37 °C)
UCCCAGCAAUAUUACGCACU	-1.64 ± 0.12	-1.04 ± 0.14
UCCCAGCAAUAUUACGCAUG	-4.28 ± 0.22	-2.41 ± 0.19
UCCCAGCAAUAUUACGCCAU	-3.09 ± 0.18	-2.83 ± 0.38
UCCCAGCAAUAUUACGCCUA	-1.41 ± 0.078	-1.34 ± 0.08
UCCCAGCAAUAUUACGCGCA	-0.296 ± 0.093	-0.219 ± 0.089
UCCCAGCAAUAUUACGCUCA	-1.48 ± 0.11	-0.496 ± 0.11
UCCCAGCAAUAUUACGCUUU	-2.7 ± 0.16	-2 ± 0.15
UCCCAGCAAUAUUACGGAAU	-3.64 ± 0.18	-1.53 ± 0.12
UCCCAGCAAUAUUACGGACG	-3.93 ± 0.21	-1.97 ± 0.12
UCCCAGCAAUAUUACGGAGG	-3.51 ± 0.14	-2.23 ± 0.18
UCCCAGCAAUAUUACGGAUC	-2.71 ± 0.13	-1.64 ± 0.14
UCCCAGCAAUAUUACGGGCG	-0.841 ± 0.058	-0.455 ± 0.07
UCCCAGCAAUAUUACGGUGA	-1.57 ± 0.11	-1.02 ± 0.11
UCCCAGCAAUAUUACGGUUU	-1.23 ± 0.061	-0.274 ± 0.076
UCCCAGCAAUAUUACGUAUA	-2.5 ± 0.1	-1.33 ± 0.1
UCCCAGCAAUAUUACGUCUC	-3.23 ± 0.22	-2.89 ± 0.25
UCCCAGCAAUAUUACGUGCU	-3.59 ± 0.2	-2.92 ± 0.19
UCCCAGCAAUAUUACGUGGU	-1.53 ± 0.069	-0.339 ± 0.071
UCCCAGCAAUAUUACGUUAG	-4.08 ± 0.19	-2.78 ± 0.18
UCCCAGCAAUAUUACGUUCG	-3.65 ± 0.2	-2.96 ± 0.27
UCCGAGCAAUAUUACGCAGC	-4.03 ± 0.35	-2.51 ± 0.39
UCCGAGCAAUAUUACGCCAU	-2.56 ± 0.28	-3.16 ± 0.4
UCCGAGCAAUAUUACGCGGA	-2.27 ± 0.3	
UCCGAGCAAUAUUACGCUUC		-2.37 ± 0.35
UCCGAGCAAUAUUACGGGCA	-1.79 ± 0.12	-0.787 ± 0.1

Sequence	self-splicing fitness (ln) (30 °C)	self-splicing fitness (ln) (37 °C)
UCCGAGCAAUAUUACGGGUG	-1.97 ± 0.089	-1.66 ± 0.099
UCCGAGCAAUAUUACGGUUG	-3.29 ± 0.26	-3.07 ± 0.3
UCCGAGCAAUAUUACGUAUC	-2.88 ± 0.25	-2.07 ± 0.37
UCCGAGCAAUAUUACGUCCU	-2.6 ± 0.28	
UCCGAGCAAUAUUACGUCUU	-3.54 ± 0.25	-1.62 ± 0.2
UCCGAGCAAUAUUACGUGUC		-2.64 ± 0.34
UCCGAGCAAUAUUACGUUAU	-3.95 ± 0.21	-1.93 ± 0.19
UCCGAGCAAUAUUACGUUCC	-3.5 ± 0.25	-3.16 ± 0.32
UCCGAGCAAUAUUACGUUGA	-2.17 ± 0.097	-0.915 ± 0.087
UCCUAGCAAUAUUACGACCA	-0.552 ± 0.22	-2.28 ± 0.35
UCCUAGCAAUAUUACGAUGG	-3.64 ± 0.23	-2.15 ± 0.21
UCCUAGCAAUAUUACGAUUU	-2.16 ± 0.16	-1.36 ± 0.21
UCCUAGCAAUAUUACGCAUC	-2.3 ± 0.21	-1.27 ± 0.22
UCCUAGCAAUAUUACGCCUU	-2.98 ± 0.33	-2.34 ± 0.35
UCCUAGCAAUAUUACGCUCG	-3.13 ± 0.21	
UCCUAGCAAUAUUACGGAGU	-3.81 ± 0.22	-1.3 ± 0.13
UCCUAGCAAUAUUACGGCAU	-3.31 ± 0.17	-2.2 ± 0.11
UCCUAGCAAUAUUACGGCGA	-0.128 ± 0.092	0.153 ± 0.1
UCCUAGCAAUAUUACGGGCG	-0.227 ± 0.093	-0.227 ± 0.11
UCCUAGCAAUAUUACGGGGU	-4.13 ± 0.29	-2.65 ± 0.2
UCCUAGCAAUAUUACGUCUG	-4.52 ± 0.41	-3.05 ± 0.21
UCCUAGCAAUAUUACGUGAA	-0.777 ± 0.078	-0.552 ± 0.1
